Sequences and labels used below:
B1: AXIN1 peptide 237-252 (Axin-1), 16-mer library wild type / PP2A B56 (PPP2R5A B56 domain, residues 1-486) (parent complex)
chain 1: YLPTLNEDEEWKADQD
chain 2: not shown
B2: SH3BP2 peptide 408-423 (SH3 domain-binding protein 2), 16-mer library wild type / TNKS ANK (TNKS 12 ANK repeats, residues 174-649) (parent complex)
chain 1: PQLPHLQRSPPDGQSF
chain 2: TGVPAVSGALRELLEACRNGDVSRVKRLVDAANVNAKDMAGRKSSPLHFAAGFGRKDVVEHLLQMGANVHARDDGGLIPLHNACSFGHAEVVSLLLCQGADPNARDNWNYTPLHEAAIKGKIDVCIVLLQHGADPNIRNTDGKSALDLADPSAKAVLTGEYKKDELLEAARSGNEEKLMALLTPLNVNCHASDGRKSTPLHLAAGYNRVRIVQLLLQHGADVHAKDKGGLVPLHNACSYGHYEVTELLLKHGACVNAMDLWQFTPLHEAASKNRVEVCSLLLSHGADPTLVNCHGKSAVDMAPTPELRERLTYEFKGHSLLQAAREADLAKVKKTLALEIINFKQPQSHETALHCAVASLHPKRKQVTELLLRKGANVNEKNKDFMTPLHVAAERAHNDVMEVLHKHGAKMNALDTLGQTALHRAALAGHLQTCRLLLSYGSDPSIISLQGFTAAQMGNEAVQQILSESTPIRTSD

Variants of B1 are the subject of one test. Put plainly: proteomic peptide phage display deep mutational scan (ProP-PD DMS): M13 P8 16-mer library selected against immobilised GST-tagged bait for four days (rounds), NGS of the eluted pools per day and pseudo-replica; bait immobilised on MaxiSorp plates (10 µg), library pre-cleared on GST, 2 h binding at 4 °C, five washes; one round per day, days 1-4; value from days 2 and 3.
For chain 1 D8I, the screen value was 0.000369 average fractional NGS count over selection days 2 and 3 (reads of this peptide / all reads for the bait, averaged over ….
chain 1 D8Q: the screen value is 0.00238 average fractional NGS count over selection days 2 and 3 (reads of this peptide / all reads for the bait, averaged over ….
Same read-out and setting: for chain 1 D8K the value was 0.00103 average fractional NGS count over selection days 2 and 3 (reads of this peptide / all reads for the bait, averaged over …; for chain 1 Y1T, 0.00199 average fractional NGS count over selection days 2 and 3 (reads of this peptide / all reads for the bait, averaged over …; for chain 1 Y1H, 0.000114 average fractional NGS count over selection days 2 and 3 (reads of this peptide / all reads for the bait, averaged over ….
Same read-out and setting: the same measure for chain 1 Y1P: 0.000164 average fractional NGS count over selection days 2 and 3 (reads of this peptide / all reads for the bait, averaged over ….
As to chain 1 Y1K, the screen value is 0.000785 average fractional NGS count over selection days 2 and 3 (reads of this peptide / all reads for the bait, averaged over ….
The same measure, in the same setting: the same measure for chain 1 Y1R: 0.000195 average fractional NGS count over selection days 2 and 3 (reads of this peptide / all reads for the bait, averaged over …; for chain 1 Y1Q: 0.000381 average fractional NGS count over selection days 2 and 3 (reads of this peptide / all reads for the bait, averaged over …; for chain 1 Y1L: 0.00157 average fractional NGS count over selection days 2 and 3 (reads of this peptide / all reads for the bait, averaged over ….
On the same count and under the same terms, for chain 1 Y1M the value was 0.000646 average fractional NGS count over selection days 2 and 3 (reads of this peptide / all reads for the bait, averaged over …; for chain 1 Y1I, 0.00029 average fractional NGS count over selection days 2 and 3 (reads of this peptide / all reads for the bait, averaged over ….
On the same count and under the same terms, the same measure for chain 1 Y1V: 0.000255 average fractional NGS count over selection days 2 and 3 (reads of this peptide / all reads for the bait, averaged over …; for chain 1 Y1N: 0.000299 average fractional NGS count over selection days 2 and 3 (reads of this peptide / all reads for the bait, averaged over ….
With chain 1 Y1A, the screen value was 0.000622 average fractional NGS count over selection days 2 and 3 (reads of this peptide / all reads for the bait, averaged over ….
Still for that read-out and setting: the same measure for chain 1 L2M: 0.000692 average fractional NGS count over selection days 2 and 3 (reads of this peptide / all reads for the bait, averaged over …; for chain 1 P3H: 0.00026 average fractional NGS count over selection days 2 and 3 (reads of this peptide / all reads for the bait, averaged over …; for chain 1 P3Y: 0.000178 average fractional NGS count over selection days 2 and 3 (reads of this peptide / all reads for the bait, averaged over ….
Same read-out and setting: the same measure for chain 1 P3E: 0.000951 average fractional NGS count over selection days 2 and 3 (reads of this peptide / all reads for the bait, averaged over …; for chain 1 P3S: 0.00024 average fractional NGS count over selection days 2 and 3 (reads of this peptide / all reads for the bait, averaged over ….
The same measure, in the same setting: for chain 1 W11I the value was 0.000232 average fractional NGS count over selection days 2 and 3 (reads of this peptide / all reads for the bait, averaged over …; for chain 1 W11V, 0.000957 average fractional NGS count over selection days 2 and 3 (reads of this peptide / all reads for the bait, averaged over ….
With chain 1 W11Y, the screen value is 0.000932 average fractional NGS count over selection days 2 and 3 (reads of this peptide / all reads for the bait, averaged over ….
On the same count and under the same terms, the same measure for chain 1 W11Q: 0.000237 average fractional NGS count over selection days 2 and 3 (reads of this peptide / all reads for the bait, averaged over …; for chain 1 D14Q: 0.00055 average fractional NGS count over selection days 2 and 3 (reads of this peptide / all reads for the bait, averaged over …; for chain 1 D14E: 0.00475 average fractional NGS count over selection days 2 and 3 (reads of this peptide / all reads for the bait, averaged over ….
On the same count and under the same terms, for chain 1 D14P the value was 0.00181 average fractional NGS count over selection days 2 and 3 (reads of this peptide / all reads for the bait, averaged over …; for chain 1 D14K, 0.000793 average fractional NGS count over selection days 2 and 3 (reads of this peptide / all reads for the bait, averaged over …; for chain 1 D14M, 0.0116 average fractional NGS count over selection days 2 and 3 (reads of this peptide / all reads for the bait, averaged over ….
As to chain 1 D14L, the screen value was 0.00106 average fractional NGS count over selection days 2 and 3 (reads of this peptide / all reads for the bait, averaged over ….
Turning to chain 1 D14H, the screen value was 0.038 average fractional NGS count over selection days 2 and 3 (reads of this peptide / all reads for the bait, averaged over ….
As for chain 1 D14F, the screen value is 0.0121 average fractional NGS count over selection days 2 and 3 (reads of this peptide / all reads for the bait, averaged over ….
The same measure, in the same setting: the same measure for chain 1 D14W: 0.0112 average fractional NGS count over selection days 2 and 3 (reads of this peptide / all reads for the bait, averaged over ….
With chain 1 D14R, the screen value was 0.0071 average fractional NGS count over selection days 2 and 3 (reads of this peptide / all reads for the bait, averaged over ….

In the next test the parent is B2. The description is as above.
On to chain 1 PQLPHLQESPPDGQSF [chain 1 R8E], for which the screen value is 0.000101 average fractional NGS count over selection days 2 and 3 (reads of this peptide / all reads for the bait, averaged over ….
Still for that read-out and setting: the same measure for chain 1 PQLPHLQRSPPLGQSF [chain 1 D12L]: 0.000574 average fractional NGS count over selection days 2 and 3 (reads of this peptide / all reads for the bait, averaged over …; for chain 1 PQLPHLQRSPPVGQSF [chain 1 D12V]: 0.000643 average fractional NGS count over selection days 2 and 3 (reads of this peptide / all reads for the bait, averaged over ….
Same read-out and setting: the same measure for chain 1 PQHPHLQRSPPDGQSF [chain 1 L3H]: 0.000462 average fractional NGS count over selection days 2 and 3 (reads of this peptide / all reads for the bait, averaged over ….
The same measure, in the same setting: the same measure for chain 1 PQYPHLQRSPPDGQSF [chain 1 L3Y]: 0.000217 average fractional NGS count over selection days 2 and 3 (reads of this peptide / all reads for the bait, averaged over …; for chain 1 PQFPHLQRSPPDGQSF [chain 1 L3F]: 0.000552 average fractional NGS count over selection days 2 and 3 (reads of this peptide / all reads for the bait, averaged over ….
For the variant chain 1 PQKPHLQRSPPDGQSF [chain 1 L3K], the screen value was 0.000138 average fractional NGS count over selection days 2 and 3 (reads of this peptide / all reads for the bait, averaged over ….
On the same count and under the same terms, the same measure for chain 1 PQQPHLQRSPPDGQSF [chain 1 L3Q]: 0.000641 average fractional NGS count over selection days 2 and 3 (reads of this peptide / all reads for the bait, averaged over ….
As to chain 1 PQLPHLQRSPPDGNSF [chain 1 Q14N], the screen value was 0.000561 average fractional NGS count over selection days 2 and 3 (reads of this peptide / all reads for the bait, averaged over ….
chain 1 PQLPHLQRSPPDGKSF [chain 1 Q14K]: the screen value was 0.00049 average fractional NGS count over selection days 2 and 3 (reads of this peptide / all reads for the bait, averaged over ….
Still for that read-out and setting: the same measure for chain 1 PQLPHLQRSPPDGASF [chain 1 Q14A]: 0.00095 average fractional NGS count over selection days 2 and 3 (reads of this peptide / all reads for the bait, averaged over …; for chain 1 PQLPHLQRSPPDGHSF [chain 1 Q14H]: 0.00138 average fractional NGS count over selection days 2 and 3 (reads of this peptide / all reads for the bait, averaged over ….
Same read-out and setting: for chain 1 PQLPHLQRSAPDGQSF [chain 1 P10A] the value was 0.000707 average fractional NGS count over selection days 2 and 3 (reads of this peptide / all reads for the bait, averaged over ….
Same read-out and setting: for chain 1 PQLPHLQRSFPDGQSF [chain 1 P10F] the value was 0.000203 average fractional NGS count over selection days 2 and 3 (reads of this peptide / all reads for the bait, averaged over ….
On to chain 1 PQLPHLQRSLPDGQSF [chain 1 P10L], for which the screen value is 0.00106 average fractional NGS count over selection days 2 and 3 (reads of this peptide / all reads for the bait, averaged over ….
Same read-out and setting: for chain 1 PQLPHLQRSPPDGQSM [chain 1 F16M] the value was 0.00196 average fractional NGS count over selection days 2 and 3 (reads of this peptide / all reads for the bait, averaged over …; for chain 1 PQLPHLQRSPPDGQSQ [chain 1 F16Q], 0.000905 average fractional NGS count over selection days 2 and 3 (reads of this peptide / all reads for the bait, averaged over ….
As to chain 1 PVLPHLQRSPPDGQSF [chain 1 Q2V], the screen value is 0.000821 average fractional NGS count over selection days 2 and 3 (reads of this peptide / all reads for the bait, averaged over ….
Same read-out and setting: for chain 1 PYLPHLQRSPPDGQSF [chain 1 Q2Y] the value was 0.000238 average fractional NGS count over selection days 2 and 3 (reads of this peptide / all reads for the bait, averaged over …; for chain 1 PTLPHLQRSPPDGQSF [chain 1 Q2T], 0.000819 average fractional NGS count over selection days 2 and 3 (reads of this peptide / all reads for the bait, averaged over ….
On the same count and under the same terms, for chain 1 PILPHLQRSPPDGQSF [chain 1 Q2I] the value was 0.000434 average fractional NGS count over selection days 2 and 3 (reads of this peptide / all reads for the bait, averaged over …; for chain 1 PQLPHLSRSPPDGQSF [chain 1 Q7S], 0.000276 average fractional NGS count over selection days 2 and 3 (reads of this peptide / all reads for the bait, averaged over ….
For chain 1 PQLTHLQRSPPDGQSF [chain 1 P4T], the screen value is 0.000173 average fractional NGS count over selection days 2 and 3 (reads of this peptide / all reads for the bait, averaged over ….
Same read-out and setting: the same measure for chain 1 PQLYHLQRSPPDGQSF [chain 1 P4Y]: 0.000273 average fractional NGS count over selection days 2 and 3 (reads of this peptide / all reads for the bait, averaged over …; for chain 1 PQLNHLQRSPPDGQSF [chain 1 P4N]: 0.000673 average fractional NGS count over selection days 2 and 3 (reads of this peptide / all reads for the bait, averaged over ….
Same read-out and setting: for chain 1 PQLGHLQRSPPDGQSF [chain 1 P4G] the value was 0.000551 average fractional NGS count over selection days 2 and 3 (reads of this peptide / all reads for the bait, averaged over …; for chain 1 PQLPHSQRSPPDGQSF [chain 1 L6S], 0.000251 average fractional NGS count over selection days 2 and 3 (reads of this peptide / all reads for the bait, averaged over ….
On the same count and under the same terms, the same measure for chain 1 PQLPHHQRSPPDGQSF [chain 1 L6H]: 0.000142 average fractional NGS count over selection days 2 and 3 (reads of this peptide / all reads for the bait, averaged over …; for chain 1 PQLPHMQRSPPDGQSF [chain 1 L6M]: 0.000442 average fractional NGS count over selection days 2 and 3 (reads of this peptide / all reads for the bait, averaged over ….
With chain 1 PQLPHYQRSPPDGQSF [chain 1 L6Y], the screen value was 0.000851 average fractional NGS count over selection days 2 and 3 (reads of this peptide / all reads for the bait, averaged over ….
Still for that read-out and setting: the same measure for chain 1 PQLPHGQRSPPDGQSF [chain 1 L6G]: 0.000481 average fractional NGS count over selection days 2 and 3 (reads of this peptide / all reads for the bait, averaged over …; for chain 1 PQLPHLQRHPPDGQSF [chain 1 S9H]: 0.00219 average fractional NGS count over selection days 2 and 3 (reads of this peptide / all reads for the bait, averaged over …; for chain 1 PQLPHLQRQPPDGQSF [chain 1 S9Q]: 0.00451 average fractional NGS count over selection days 2 and 3 (reads of this peptide / all reads for the bait, averaged over ….
On the same count and under the same terms, for chain 1 PQLPHLQRYPPDGQSF [chain 1 S9Y] the value was 0.000793 average fractional NGS count over selection days 2 and 3 (reads of this peptide / all reads for the bait, averaged over ….
On the same count and under the same terms, for chain 1 PQLPHLQRDPPDGQSF [chain 1 S9D] the value was 0.00106 average fractional NGS count over selection days 2 and 3 (reads of this peptide / all reads for the bait, averaged over ….

These data come from paper PMC12102759 (2025).
